Measurements as given in patent US20050153894 (published 2005).
Square brackets hold non-standard residues; d marks the D form. Ends that are not written are not given here.

B1: GST-pRb(772-928) (protein)
chain: ASTRPPTLSPIPHIPRSPYKFPSSPLRIPGGNIYISPLKSPYKISEGLPTPTKMTPRSRILVSIGESFGTSEKFQKINQMVCNSDRVLKRSAEGSNPPKPLKKLRFDIEGSDEADGSKHLPGESKFQQKLAEMTSTRTRMQKQKMNDSMDTSNKEEK

Key:
cyclin D1 = cyclin D1 (human, UniProt P24385); test: competition
cyclin A = cyclin A (human, UniProt P20248); test: competition, immobilised p21 peptide
Sequence of cyclin A (P20248 whole entry): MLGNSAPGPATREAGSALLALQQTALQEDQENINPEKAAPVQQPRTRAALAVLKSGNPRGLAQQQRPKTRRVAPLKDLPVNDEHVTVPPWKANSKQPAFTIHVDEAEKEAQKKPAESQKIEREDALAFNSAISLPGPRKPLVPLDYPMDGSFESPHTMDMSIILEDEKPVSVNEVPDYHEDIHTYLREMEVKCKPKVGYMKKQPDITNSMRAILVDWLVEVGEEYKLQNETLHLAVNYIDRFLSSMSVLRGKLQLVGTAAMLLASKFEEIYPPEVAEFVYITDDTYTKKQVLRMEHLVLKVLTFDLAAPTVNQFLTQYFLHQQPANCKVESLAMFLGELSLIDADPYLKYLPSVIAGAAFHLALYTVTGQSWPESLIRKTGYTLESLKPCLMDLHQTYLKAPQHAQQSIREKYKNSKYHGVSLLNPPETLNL

Sequence of cyclin D1 (P24385 whole entry): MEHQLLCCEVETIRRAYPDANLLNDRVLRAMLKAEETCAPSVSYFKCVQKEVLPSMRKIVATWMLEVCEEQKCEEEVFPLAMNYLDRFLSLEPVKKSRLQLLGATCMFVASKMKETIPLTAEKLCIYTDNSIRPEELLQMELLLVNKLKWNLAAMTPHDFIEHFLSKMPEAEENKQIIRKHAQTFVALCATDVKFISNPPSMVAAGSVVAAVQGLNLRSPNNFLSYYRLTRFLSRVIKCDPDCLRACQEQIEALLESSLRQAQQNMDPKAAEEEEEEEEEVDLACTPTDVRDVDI

Binder | IC50 (cyclin D1) [µM] | IC50 (cyclin A) [µM]
KA[code U]RRLIF [KAURRLIF] | 20 | –
SA[code U]RNLFG [p27 SAURNLFG] | > 200 | –
KA[code U]RRLFG [p21 N-terminus KAURRLFG] | 134 | –
B1 | – | 9
